Measured values published in publication PMC3695512, “Recognition of two distinct elements in the RNA substrate by the RNA-binding domain of the T. thermophilus DEAD box helicase Hera”.

Tests used:
Hera_208-419 (RecA_C_DD) = biological target: T1, Hera_208-419 (RecA_C_DD) (Thermus thermophilus, UniProt O07897 208-419); assay: fluorescence anisotropy; 5 mM Mg2+; compared with full-length Hera; Anisotropy: 50 mM Tris/HCl pH 7.5, 150 mM NaCl, 5 mM MgCl2 (Fig 2), 25 C, 50 nM RNA; EMSA: same Tris/NaCl, 12% glycerol, 25 C; NMR: 25 mM Bis-Tris/HCl pH 6.0, 50 mM NaCl, 10% D2O, 37 C; settings: protein: recombinant; chain copies: 2; label: 5'-fluorescein; hairpin with 5' single strand
T1 sequence: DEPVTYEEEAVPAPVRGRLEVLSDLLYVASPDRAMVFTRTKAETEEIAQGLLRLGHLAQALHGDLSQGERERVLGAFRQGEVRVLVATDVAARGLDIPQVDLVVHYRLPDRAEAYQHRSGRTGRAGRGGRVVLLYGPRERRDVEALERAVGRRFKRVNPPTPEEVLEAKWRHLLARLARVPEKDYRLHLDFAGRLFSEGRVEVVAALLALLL

Hera_RBD K463A = biological target: T2, Hera_RBD K463A (Thermus thermophilus, UniProt O07897 424-510, K463A); assay: fluorescence anisotropy; 5 mM Mg2+; text also says abolishes binding; Anisotropy: 50 mM Tris/HCl pH 7.5, 150 mM NaCl, 5 mM MgCl2 (Fig 2), 25 C, 50 nM RNA; EMSA: same Tris/NaCl, 12% glycerol, 25 C; NMR: 25 mM Bis-Tris/HCl pH 6.0, 50 mM NaCl, 10% D2O, 37 C; settings: protein: recombinant; label: 5'-fluorescein; hairpin with 5' single strand
T2 sequence: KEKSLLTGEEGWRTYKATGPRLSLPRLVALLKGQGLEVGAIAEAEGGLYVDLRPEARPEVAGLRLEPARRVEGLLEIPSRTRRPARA

Hera_RBD K439A = biological target: T3, Hera_RBD K439A (Thermus thermophilus, UniProt O07897 424-510, K439A); assay: fluorescence anisotropy; 5 mM Mg2+; Anisotropy: 50 mM Tris/HCl pH 7.5, 150 mM NaCl, 5 mM MgCl2 (Fig 2), 25 C, 50 nM RNA; EMSA: same Tris/NaCl, 12% glycerol, 25 C; NMR: 25 mM Bis-Tris/HCl pH 6.0, 50 mM NaCl, 10% D2O, 37 C; settings: protein: recombinant; label: 5'-fluorescein; hairpin with 5' single strand
T3 sequence: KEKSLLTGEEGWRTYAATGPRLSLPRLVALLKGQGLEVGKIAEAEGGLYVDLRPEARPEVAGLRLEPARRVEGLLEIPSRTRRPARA

Hera_RBD R492A = biological target: T4, Hera_RBD R492A (Thermus thermophilus, UniProt O07897 424-510, R492A); assay: as above; settings: protein: recombinant; label: 5'-fluorescein; hairpin with 5' single strand
T4 sequence: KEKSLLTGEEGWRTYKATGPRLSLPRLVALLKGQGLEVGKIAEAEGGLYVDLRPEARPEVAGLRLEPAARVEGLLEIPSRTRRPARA

Hera_RBD Q457C = biological target: T5, Hera_RBD Q457C (Thermus thermophilus, UniProt O07897 424-510, Q457C); assay: as above; settings: protein: recombinant; label: 5'-fluorescein; hairpin with 5' single strand
T5 sequence: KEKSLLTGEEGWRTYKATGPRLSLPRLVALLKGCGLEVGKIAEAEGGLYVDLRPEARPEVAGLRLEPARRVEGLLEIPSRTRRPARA

Hera_RBD S446C = biological target: T6, Hera_RBD S446C (Thermus thermophilus, UniProt O07897 424-510, S446C); assay: as above; settings: protein: recombinant; label: 5'-fluorescein; hairpin with 5' single strand
T6 sequence: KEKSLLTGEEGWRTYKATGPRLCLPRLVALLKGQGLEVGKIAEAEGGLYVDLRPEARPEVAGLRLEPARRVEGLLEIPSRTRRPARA

Hera_RBD R444A/R449A = biological target: T7, Hera_RBD R444A/R449A (Thermus thermophilus, UniProt O07897 424-510, R444A;R449A); assay: as above; settings: protein: recombinant; label: 5'-fluorescein; hairpin with 5' single strand
T7 sequence: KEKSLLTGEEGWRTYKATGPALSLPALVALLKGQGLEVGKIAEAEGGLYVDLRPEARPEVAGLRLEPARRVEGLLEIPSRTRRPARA

Hera_RBD R449A = biological target: T8, Hera_RBD R449A (Thermus thermophilus, UniProt O07897 424-510, R449A); assay: as above; settings: protein: recombinant; label: 5'-fluorescein; hairpin with 5' single strand
T8 sequence: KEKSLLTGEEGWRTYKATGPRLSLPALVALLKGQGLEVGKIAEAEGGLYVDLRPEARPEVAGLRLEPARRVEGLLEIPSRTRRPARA

B1: 32mer (structured_RNA)
RNA: GCAGGUCCCAAGGGUUGGGCUGUUCGCCCAUU
binding signal (Hera_208-419 (RecA_C_DD)): ~70 fold Kd increase
binding signal (Hera_RBD K463A): > 25 fold Kd increase
binding signal (Hera_RBD K439A): < 5 fold Kd increase
binding signal (Hera_RBD R492A): < 5 fold Kd increase
binding signal (Hera_RBD Q457C): < 5 fold Kd increase
binding signal (Hera_RBD S446C): < 5 fold Kd increase
binding signal (Hera_RBD R444A/R449A): > 25 fold Kd increase
binding signal (Hera_RBD R449A): > 25 fold Kd increase
